Measurements taken from patent US20080112926A1 (PROTAFFIN BIOTECHNOLOGIE, published 2008).

Target: the molecule itself
Test: fluorescence anisotropy with bis-ANS in PBS, self-association (dimerisation), no GAG
Method: By recording the concentration dependent fluorescence anisotropy of the chemokine resulting from the extrinsic chromophore bisANS it was aimed to find out the dimerisation constant of the mutants. Measurements were performed in PBS starting with high concentrations (up to 4 μM protein) followed by stepwise dilution. For each data point, the anisotropy signal (r) recorded at 507 nm was averaged over 60 sec.
IL-8 oligomerisation has been reported to relevantly influence the proteins GAG binding properties. Set at monomeric concentration, IL-8 bound size defined oligosaccharides 1000-fold tighter than at dimeric concentration. Therefore, the oligomerisation properties of IL-8 mutants were investigated by fluorescence anisotropy. Since the IL-8 intrinsic fluorophore (Trp57) was not sensitive enough for all of the mutants, the extrinsic fluorophore bis-ANS was used for these measurements. […] The mutant with the highest koligo(koligo=460 nM), which therefore dimerised worst, was Δ6 F17RF21R E70RN71K. […] Also the impact of heparan sulphate addition was observed.

Protein | koligo (oligomerisation constant)
IL-8 mutant Δ6 F17RF21R E70RN71K (ligand, Δ6 means the first 6 N-terminal amino acids are deleted) CQCIKTYSKPRHPKRIKELRVIESGPHCANTEIIVKLSDGRELCLDPKENWVQRVVEKFLKRARKS | 460 nM
IL-8 mutant Δ6 F17RF21R E70K (ligand, Δ6 means the first 6 N-terminal amino acids are deleted) CQCIKTYSKPRHPKRIKELRVIESGPHCANTEIIVKLSDGRELCLDPKENWVQRVVEKFLKRAKNS | 147 nM
